Experimental data reported in paper PMC3033577 (FEBS letters, 2004).

How the values were obtained:
[1] = biological target: T1, B. stearothermophilus DnaB, main replicative ring helicase (B. stearothermophilus, UniProt Q9X4C9 1-454); test: SEC
T1 sequence (looked up): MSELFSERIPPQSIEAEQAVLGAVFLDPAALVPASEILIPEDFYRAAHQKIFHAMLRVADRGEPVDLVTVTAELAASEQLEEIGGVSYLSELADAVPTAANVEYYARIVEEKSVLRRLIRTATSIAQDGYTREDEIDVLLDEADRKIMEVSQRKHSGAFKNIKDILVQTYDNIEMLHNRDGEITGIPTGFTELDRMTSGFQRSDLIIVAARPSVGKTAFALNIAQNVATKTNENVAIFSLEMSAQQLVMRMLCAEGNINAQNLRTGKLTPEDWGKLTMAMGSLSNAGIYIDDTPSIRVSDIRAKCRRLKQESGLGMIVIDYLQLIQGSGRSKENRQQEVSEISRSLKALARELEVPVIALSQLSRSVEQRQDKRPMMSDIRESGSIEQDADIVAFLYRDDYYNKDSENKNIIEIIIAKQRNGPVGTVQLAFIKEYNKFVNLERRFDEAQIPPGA

DnaD [2] = biological target: T2, DnaD (Bacillus subtilis (strain 168 EMG50), UniProt P39787 1-232); test: EMSA
T2 sequence: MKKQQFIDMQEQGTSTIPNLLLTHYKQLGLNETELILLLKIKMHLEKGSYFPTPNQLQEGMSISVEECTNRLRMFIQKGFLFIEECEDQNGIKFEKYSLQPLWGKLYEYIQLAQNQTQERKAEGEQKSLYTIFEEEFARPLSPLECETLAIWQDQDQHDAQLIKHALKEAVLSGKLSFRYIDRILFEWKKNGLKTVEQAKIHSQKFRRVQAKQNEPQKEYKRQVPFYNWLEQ

DnaD [3] = biological target: T2, DnaD; test: sedimentation velocity ultracentrifugation

B1: B. subtilis DnaI, putative helicase loader (natural protein, UniProt P06567 1-311, looked up)
chain: MEPIGRSLQGVTGRPDFQKRLEQMKEKVMKDQDVQAFLKENEEVIDQKMIEKSLNKLYEYIEQSKNCSYCSEDENCNNLLEGYHPKLVVNGRSIDIEYYECPVKRKLDQQKKQQSLMKSMYIQQDLLGATFQQVDISDPSRLAMFQHVTDFLKSYNETGKGKGLYLYGKFGVGKTFMLAAIANELAEKEYSSMIVYVPEFVRELKNSLQDQTLEEKLNMVKTTPVLMLDDIGAESMTSWVRDEVIGTVLQHRMSQQLPTFFSSNFSPDELKHHFTYSQRGEKEEVKAARLMERILYLAAPIRLDGENRRHP
binding result [1]: binds

TGCATGCCTGCAGGTCGACTCTAGAGGATCCCC (ssDNA) [33mer oligonucleotide (radiolabeled)]
binding result (DnaD [2]): binds

TGCATGCCTGCAGGTCGACTCTAGAGGATCCCC (ssDNA) [33mer oligonucleotide (5'-HEX)]
binding result (DnaD [3]): binds
